Measured values: US20050058645A1 (ZENYTH OPERATIONS, published 2005)

B1: CDR-grafted 1D9 Fab (Fab, V domains shown)
VH: EVQLVESGGGLVQPGGSLRLSCAASGFTFSGYGMSWVRQAPGKGLEWVATISGLGGYTYYPDSVKGRFTISRDNSKNTLYLQMNSLRAEDTAVYYCARRFYGDYVGAMDYWGQGTLVTVSS
VL: DIQMTQSPSSLSASVGDRVTITCRSSKSLLHSNGITYLYWYQQKPGKAPKLLIYQMSNLASGVPSRFSGSGSGTDFTLTISSLQPEDFATYYCAQNLELPFTFGQGTKVEIKR
B2: chimeric mouse IL-13Rα1-Fc (Fc fusion, UniProt O09030 26-340, looked up)
chain: ATEVQPPVTNLSVSVENLCTIIWTWSPPEGASPNCTLRYFSHFDDQQDKKIAPETHRKEELPLDEKICLQVGSQCSANESEKPSPLVKKCISPPEGDPESAVTELKCIWHNLSYMKCSWLPGRNTSPDTHYTLYYWYSSLEKSRQCENIYREGQHIACSFKLTKVEPSFEHQNVQIMVKDNAGKIRPSCKIVSLTSYVKPDPPHIKHLLLKNGALLVQWKNPQNFRSRCLTYEVEVNNTQTDRHNILEVEEDKCQNSESDRNMEGTSCFQLPGVLADAVYTVRVRVKTNKLCFDDNKLWSDWSEAQSIGKEQNST
notes: extracellular domain; Bought (R & D Systems); Preformed disulphide-bonded dimer; also called mIL-13Rα1-Fc; chimeric mouse receptor; not shown: Fc portion of human IgG
B3: soluble hIL-13Rα1 (ECD) (receptor)
chain: GGGGAAPTETQPPVTNLSVSVENLCTVIWTWNPPEGASSNCSLWYFSHFGDKQDKKIAPETRRSIEVPLNERICLQVGSQCSTNESEKPSILVEKCISPPEGDPESAVTELQCIWHNLSYMKCSWLPGRNTSPDTNYTLYYWHRSLEKIHQCENIFREGQYFGCSFDLTKVKDSSFEQHSVQIMVKDNAGKIKPSFNIVPLTSRVKPDPPHIKNLSFHNDDLYVQWENPQNFISRCLFYEVEVNNSQTETHNVFYVQEAKCENPEFERNVENTSCFMVPGVLPDTLNTVRIRVKTNKLCYEDDKLWSNWSQEMSIGKKRNST
notes: also called immobilized hIL-13Rα1 (ECD)
B4: chimeric human IL-13Rα1-Fc (Fc fusion)
chain: B3 chain
notes: Bought (R & D Systems); Extracellular domain of IL-13Rα1 fused to Fc of human IgG; Expressed as preformed disulphide-bonded dimer; also called hIL-13Rα1-Fc; chimeric human receptor; not shown: Fc portion of human IgG
B5: mouse IL-13 (ligand, UniProt P20109 21-131, looked up)
chain: GPVPRSVSLPLTLKELIEELSNITQDQTPLCNGSMVWSVDLAAGGFCVALDSLTNISNCNAIYRTQRILHGLCNRKAPTTVSSLPDTKIEVAHFITKLLSYTKQLFRHGPF

Key:
soluble hIL-13Rα1 (ECD) = target: B3; assay: competition ELISA (phage displayed Fab) and Biacore competition (soluble Fab)
Protocol: (§1) FIGS. 11A and 11B are graphical representations of binding affinities of the chimeric and CDR-grafted Fab fragment. […] (B) Biosensor competition assay of soluble 1D9 chimeric or CDR-grafted Fab binding to immobilized hIL-13Rα1 (ECD) competed by soluble hIL-13Rα1 (ECD). Fold-difference in affinity is calculated from (IC₅₀/IC₅₀).
The CDR-grafted Fab has similar affinity for IL-13Rα1 as the reference murine-human chimeric Fab.

[1] = target: B4; assay: ELISA: phage displayed Fab on plate bound hIL-13Rα1-Fc (ECD) (2.5 µg/ml), competed by soluble hIL-13Rα1 (ECD)
human IL-13 = human IL-13 (human, UniProt P35225 35-146, limits assumed); assay: Biosensor, immobilized IL-13
mouse IL-13 = target: B5; assay: Biosensor, immobilized IL-13
[2] = target: T1, mouse-human chimeric 1D9 Fab (human, UniProt P01857 1-103 = IgG part; P01834 1-107, limits assumed); assay: Competition ELISA: phage displayed chimeric 1D9 Fab on plate bound hIL-13Rα1-Fc (ECD) (2.5 µg/ml), competed by titrated soluble hIL-13Rα1 (ECD)
[3] = target: T1, mouse-human chimeric 1D9 Fab; assay: Biosensor competition assay: soluble chimeric 1D9 Fab on immobilized hIL-13Rα1 (ECD), competed by titrated soluble hIL-13Rα1 (ECD)
Protocol: as §1

CDR-grafted 1D9 Fab [4] = target: B1; assay: Biosensor competition assay: soluble Fabs on immobilized hIL-13Rα1 (ECD), competed by soluble hIL-13Rα1 (ECD); ratio of the IC50 of the CDR-graft to that of the chimera
Protocol: as §1

CDR-grafted 1D9 Fab [5] = target: B1; assay: Biosensor competition assay: soluble CDR-grafted 1D9 Fab on immobilized hIL-13Rα1 (ECD), competed by titrated soluble hIL-13Rα1 (ECD)
Protocol: as §1

CDR-grafted 1D9 Fab [6] = target: B1; assay: Competition ELISA: phage displayed CDR-grafted 1D9 Fab on plate bound hIL-13Rα1-Fc (ECD) (2.5 µg/ml), competed by titrated soluble hIL-13Rα1 (ECD)
CDR-grafted 1D9 Fab [7] = target: B1; assay: Competition ELISA: phage displayed Fabs on plate bound hIL-13Rα1-Fc (ECD), competed by soluble hIL-13Rα1 (ECD); ratio of the IC50 of the CDR-graft to that of the chimera
[8] = target: T2, IL-13 (species not stated); assay: Biosensor, immobilized IL-13
T2 construct: the 100-fold comparison

[9] = target: B2; assay: Biosensor, immobilized mouse IL-13, chimeric receptor in solution
From the text: (§2) A qualitative comparison of sensorgrams obtained in this study to data obtained previously with monomeric receptor protein, indicated a substantial improvement in binding kinetics. This improvement is attributed to a much slower off-rate for the dimeric form, compared with the monomeric form, of the receptor. To further quantify this interaction a complete dose-response analysis using both human and mouse chimeric receptor proteins and immobilized human and mouse IL-13 was undertaken.

[10] = target: B4; assay: as above
From the text: as §2

T1 sequence (VH, as listed by the source limits assumed, chain 1 of 2): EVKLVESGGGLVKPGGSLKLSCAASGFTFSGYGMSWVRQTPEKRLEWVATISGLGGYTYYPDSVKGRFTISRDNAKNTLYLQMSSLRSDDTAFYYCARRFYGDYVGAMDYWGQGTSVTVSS
T1 sequence (VL, as listed by the source limits assumed, chain 2 of 2): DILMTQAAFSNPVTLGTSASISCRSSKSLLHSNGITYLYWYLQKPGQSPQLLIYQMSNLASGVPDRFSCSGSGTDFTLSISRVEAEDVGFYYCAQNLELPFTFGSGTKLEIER
human IL-13, sequence (P35225 35-146 limits assumed): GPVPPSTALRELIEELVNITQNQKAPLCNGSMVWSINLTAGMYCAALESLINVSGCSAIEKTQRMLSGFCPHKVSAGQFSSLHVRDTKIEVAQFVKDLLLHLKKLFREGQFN

Binder: B1
- binding result (soluble hIL-13Rα1 (ECD)): binds
- binding result [1]: binds

Binder: B2
- fold greater affinity compared with the chimeric human receptor (human IL-13): ~10 fold
- fold greater affinity compared with the chimeric human receptor (mouse IL-13): ~10 fold

Binder: B3
- IC50 [2]: 0.045 mg/L
- IC50 [3]: 6.66 nM
- fold difference in affinity (CDR-graft against Chimera, IC50/IC50) (CDR-grafted 1D9 Fab [4]): ~1.5 fold
- IC50 (CDR-grafted 1D9 Fab [5]): 9.61 nM
- IC50 (CDR-grafted 1D9 Fab [6]): 0.127 mg/L
- fold difference in affinity (CDR-graft against Chimera, IC50/IC50) (CDR-grafted 1D9 Fab [7]): ~3 fold

Binder: B4
- fold increase in affinity compared with the monomeric form of the receptor [8]: 100 fold

Binder: B5
- Kd [9]: 0.536 nM
- Kd [10]: 15.1 nM
